In PMC6018903:

Target: OsSEC3A_C (amino acids 521-888)-NLuc (rice (Oryza sativa))
Assay: split reporter (BiFC, NanoBiT); split firefly luciferase complementation, NLuc and CLuc fusions under the 35S promoter co-expressed in N. benthamiana leaves, read 3 d after infiltration

CLuc-OsSNAP32 (natural protein) was tested, and the fold LUC activity over the negative vector controls was 15 fold.
